# Experimental data published in patent US20100048482A1 (Stanford University, published 2010).
# B1: epsilon protein kinase C (εPKC), endogenous, rat heart (enzyme)
# chain: MVVFNGLLKIKICEAVSLKPTAWSLRHAVGPRPQTFLLDPYIALNVDDSRIGQTATKQKTNSPAWHDEFVTDVCNGRKIELAVFHDAPIGYDDFVANCTIQFEELLQNGSRHFEDWIDLEPEGKVYVIIDLSGSSGEAPKDNEERVFRERMRPRKRQGAVRRRVHQVNGHKFMATYLRQPTYCSHCRDFIWGVIGKQGYQCQVCTCVVHKRCHELIITKCAGLKKQETPDEVGSQRFSVNMPHKFGIHNYKVPTFCDHCGSLLWGLLRQGLQCKVCKMNVHRRCETNVAPNCGVDARGIAKVLADLGVTPDKITNSGQRRKKLAAGAESPQPASGNSPSEDDRSKSAPTSPCDQELKELENNIRKALSFDNRGEEHRASSSTDGQLASPGENGEVRQGQAKRLGLDEFNFIKVLGKGSFGKVMLAELKGKDEVYAVKVLKKDVILQDDDVDCTMTEKRILALARKHPYLTQLYCCFQTKDRLFFVMEYVNGGDLMFQIQRSRKFDEPRSGFYAAEVTSALMFLHQHGVIYRDLKLDNILLDAEGHSKLADFGMCKEGILNGVTTTTFCGTPDYIAPEILQELEYGPSVDWWALGVLMYEMMAGQPPFEADNEDDLFESILHDDVLYPVWLSKEAVSILKAFMTKNPHKRLGCVAAQNGEDAIKQHPFFKEIDWVLLEQKKMKPPFKPRIKTKRDVNNFDQDFTREEPILTLVDEAIVKQINQEEFKGFSYFGEDLMP
# notes: Endogenous protein in mitochondrial or cytosolic fractions of Wistar rat hearts, immunoprecipitated from lysate; also called PKCε; epsilon PKC
# Target: heat shock protein 90 (HSP90), endogenous, rat heart (rat, UniProt P82995 2-733, limits assumed)
# Assay: co-immunoprecipitation and western blot, mitochondria of rat hearts after IR with or without 1 µM ψεHSP90 peptide
# Procedure: 200-500 μg of mitochondrial or cytosolic protein was diluted into 1 ml of IP Lysis Buffer (150 mM NaCl, 10 mM Tris-HCl, 5 mM EDTA, 0.1% Triton X-100, pH=7.4, containing Sigma Protease Inhibitor 1 and Sigma Phosphatase Inhibitors 1 and 2). […] 10 μg of Protein A/G Beads (Santa Cruz Biotechnology) were added and the mixture was incubated overnight at 4° C. with inversion mixing. Beads were then centrifuged, washed 3× in IP Lysis Buffer, then re-suspended in sample buffer. Immunoprecipitated proteins were separated on 10% SDS-PAGE gels. […] A beads alone group was also included for each sample set to assess any non-specific protein binding to the beads.
binder,measurement,value
B1,fold increase in co-immunoprecipitation with ψεHSP90 peptide treatment against IR alone,~4 fold
